The source of these data is PMC2805030 (2010).

This experiment has as its target T1, RXRα LBD 226-462 (Homo sapiens, UniProt P19793).
T1 chain: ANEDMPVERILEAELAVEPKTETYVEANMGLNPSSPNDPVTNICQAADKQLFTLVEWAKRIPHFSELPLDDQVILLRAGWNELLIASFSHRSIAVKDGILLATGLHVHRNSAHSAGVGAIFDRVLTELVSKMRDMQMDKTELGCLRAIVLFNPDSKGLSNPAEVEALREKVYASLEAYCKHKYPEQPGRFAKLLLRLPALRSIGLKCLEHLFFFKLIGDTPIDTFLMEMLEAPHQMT
The experiment can be described thus: sedimentation equilibrium analytical ultracentrifugation.

B1: RXRα LBD 226-462 (protein)
chain: T1 chain
modifications: fluorescein-labeled
The term Kd denotes the free concentration of one partner at which half of the binding sites on the other are occupied at equilibrium, for simple one-to-one binding. Read a high Kd as weaker binding. In the case of B1, the affinity, expressed as Kd, was 832 nM.
